Data reported in patent US20150148520A1.
Where “and” joins values, the source holds several entries; their conditions need not be identical. Equal entries are not always repeated.

Experiments:
[1] = target: human IGF-1 receptor (human) (UniProt P08069); test: cell-based or functional assay
[2] = target: insulin receptor, A subtype (UniProt P06213); test: cell-based or functional assay
[3] = target: insulin receptor, B subtype (UniProt P06213); test: cell-based or functional assay
[4] = target: human insulin receptor (human) (UniProt P06213); test: SPA competition, [125I]-insulin, IR membranes
[5] = target: human insulin receptor (human) (UniProt P06213); test: cell-based or functional assay

Row | % Insulin Activity [1] [%] | % (in vitro activity, IR-A) [2] [%] | % Insulin Activity [2] [%] | % (in vitro activity, IR-B) [3] [%] | % Insulin Activity [3] [%] | Substance | also measured
1 | 3.2 | 61.4 | 61.4 | 17.4 | 17.4 | MIU-35: B^1(H5,H10,Y16,L17)25-C^1-A^1(H8,N18,N21) (from UniProt P05019 49-110) (ligand) | % (in vitro activity, IGF-1 R) [1]: 3.2%
2 | – | 1.7 | – | 0.2 | – | MIU-79 di-10K-SC: B1, A14-10K B^1(H5,10Y16L17R29)30-C^1des9-12-A^1(H8,K14,N18,21) (from UniProt P05019 49-110) (ligand) | –
3 | – | – | – | 5.7 | – | Ala,B5: B^1(A5H10Y16L17)25-C^1-A^1(H8N18N21) (from UniProt P05019 49-110) (ligand) | % (in vitro activity, IGF-1 R) [1]: 2.5%
4 | – | 8.2 | – | 3.2 | – | MIU-78 mono-20K-TC: B1-20K B^1(H5,10Y16L17K29)29: A^1(H8N18,21) (ligand) | –
5 | < 0.1 | – | 0.2 | – | 0.1 | MIU-67: B^1(H5,Y16,L17)25-C^1(K8)-A^1(N18,21), two 10K PEG chains at the N-terminus and C8 (from UniProt P05019 49-110) (ligand) | –
6 | < 0.1 | – | 1 | – | 0.5 | MIU-69: B^1(H5,Y16,L17)25-C^1(K8)-A^1(K14,N18,21), two 10K PEG chains at the N-terminus and A14 (from UniProt P05019 49-110) (ligand) | –
7 | 2.6 | – | 19.7 | – | 5.8 | MIU-58: dimer of two B^1(H5,Y16,L17)25-C^1-A^1(N18,21) linked head to head via a 20 kDa PEG chain (from UniProt P05019 49-110) (ligand) | –

More lines, now with the values behind:

Row | Substance | % Insulin Activity [1] [%] | % (in vitro activity, IR-A) [2] [%] | % Insulin Activity [2] [%] | % (in vitro activity, IR-B) [3] [%] | % Insulin Activity [3] [%] | also measured
8 | DP8Mut3KA14: B^1(H5,10Y16L17R29)30-C^1des9-12-A^1(H8,K14,N18,21) (from UniProt P05019 49-110) (ligand) | – | 132 | – | 12.6 | – | –
9 | Thr,A8: B^1(H5,10Y16L17)25-C^1-A^1(T8N18,21) (from UniProt P05019 49-110) (ligand) | – | 20.4 | – | 8.4 | – | % (in vitro activity, IGF-1 R) [1]: 3.7%
10 | MIU-57: B^1(H5,Y16,L17)25-C^1-A^1(N18,21) with a 20 kDa PEG on the N-terminus of the B chain (from UniProt P05019 49-110) (ligand) | 1.2 | 4.5 | 3.1 | 1.1 | 1.1 | % (in vitro activity, IGF-1 R) [1]: 1.2%
11 | DP3(SC): B^1(H5,10Y16L17K29)29-A^1(H8,N18,21) (from UniProt P05019 49-110) (ligand) | – | 0.03 | – | – | – | –
12 | MIU-43 DP8Mut3: B^1(H5,10Y16L17R29)30-C^1des9-12-A^1(H8,N18,21) (from UniProt P05019 49-110) (ligand) | – | 97.5 | – | 16.7 | – | % (in vitro activity, column IGF-1R) [1]: 14.2%
13 | IGF-1 A: B (H5D10Y16L17) (S═O) DPI (ligand) | – | – | – | – | – | % insulin (in test) [4]: 316%; IC50 [4]: 0.25 nM
14 | IGF-1 A: B (H5D10Y16L17) DPI (ligand) | – | – | – | – | – | % insulin (in test) [4]: 479%; IC50 [4]: 0.16 nM
15 | MIU-68: B^1(H5,Y16,L17,K22)25-C^1(K8)-A^1(N18,21), two 10K PEG chains at the N-terminus and B22 (from UniProt P05019 49-110) (ligand) | < 0.1 | – | 0.4 | – | 0.1 | –
16 | IGF-1 A (H8 A9 N21): B (H5D10Y16L17 A22) DPI A-COOH (ligand) | – | – | – | – | – | % Insulin [5]: 360% and 614%
17 | DP3(TC): B^1(H5,10Y16L17K29)29: A^1(H8,N18,21) (ligand) | – | 160 | – | 33.1 | – | –
18 | di-10K-TC: B1, A14-10K B^1(H5,10Y16L17R29)29: A^1(H8K14N18,21) (ligand) | – | 6.4 | – | 2.1 | – | –
19 | MIU-56: C8-PEG20K B^1(H5,Y16,L17)25-PEG8-K-PEG4-A^1(N18,N21) (from UniProt P05019 49-110) (ligand) | – | – | 14.8 | – | – | –
